Experimental data published in paper PMC10638403, “A closed translocation channel in the substrate-free AAA+ ClpXP protease diminishes rogue degradation” (Nature Communications, 2023).

B1: full-length E. coli ClpX (enzyme)
chain: not shown
notes: ClpX, E. coli, full length, with a neutral K408E mutation; The methods tell two purifications for full-length ClpX (Ni-NTA, gel filtration and ion exchange; or ammonium sulfate, phenyl-Sepharose and mono-Q), so the His6 tag on this form is not certain; The N-terminal domains were not visible in the map; models typically hold residues 65-413; also called wild-type ClpX; ClpX6; source: E. coli …
B2: E. coli ClpP (enzyme)
chain: not shown
notes: ClpP peptidase, E. coli; models hold residues 2-193 of each subunit; also called ClpP14; double-ring ClpP tetradecamer; source: E. coli HMS174(DE3), pT7 plasmid, purified (Ni-NTA, size-exclusion chromatography); copies: 14

Key:
[1] = target: the molecule itself; experiment: cryo-EM structure; ClpX6 (5.8 µM), ClpP14 (1.9 µM), λO-Arc (20 µM dimer), ATPγS (2.5 mM) in 25 mM HEPES (pH 7.5), 100 mM KCl, 25 mM MgCl2; ClpX and ClpP incubated with ATPγS for 5 min at room temperature before λO-Arc was added; the substrate-free class was refined
[2] = target: the molecule itself; experiment: cryo-EM structure; single-chain ClpX^∆N (3 µM pseudohexamer) and ClpP (1.5 µM tetradecamer) in 20 mM HEPES (pH 7.5), 100 mM KCl, 25 mM MgCl2, incubated with ATP (5 mM) for 15 min at room temperature; doubly capped and singly capped particles
[3] = target: B1; experiment: cryo-EM structure; ClpX6 (5.8 µM), ClpP14 (1.9 µM), λO-Arc (20 µM dimer), ATPγS (2.5 mM) in 25 mM HEPES (pH 7.5), 100 mM KCl, 25 mM MgCl2; ClpX and ClpP incubated with ATPγS for 5 min at room temperature before λO-Arc was added; the substrate-free class was refined; details: both partners purified

Row | binding result [3] | Binder | stoichiometry N [1] | stoichiometry N [2]
1 | – | B1 | 6 subunits | –
2 | binds | B2 | – | 14 subunits
